Results on one molecule are retold here after patent publication JP2023550785A (dated 2023).

The assay concerns the target T1, spike protein of alphacoronavirus NL63-CoV (HCoV-NL63, UniProt Q6Q1S2 16-1291).
T1 sequence: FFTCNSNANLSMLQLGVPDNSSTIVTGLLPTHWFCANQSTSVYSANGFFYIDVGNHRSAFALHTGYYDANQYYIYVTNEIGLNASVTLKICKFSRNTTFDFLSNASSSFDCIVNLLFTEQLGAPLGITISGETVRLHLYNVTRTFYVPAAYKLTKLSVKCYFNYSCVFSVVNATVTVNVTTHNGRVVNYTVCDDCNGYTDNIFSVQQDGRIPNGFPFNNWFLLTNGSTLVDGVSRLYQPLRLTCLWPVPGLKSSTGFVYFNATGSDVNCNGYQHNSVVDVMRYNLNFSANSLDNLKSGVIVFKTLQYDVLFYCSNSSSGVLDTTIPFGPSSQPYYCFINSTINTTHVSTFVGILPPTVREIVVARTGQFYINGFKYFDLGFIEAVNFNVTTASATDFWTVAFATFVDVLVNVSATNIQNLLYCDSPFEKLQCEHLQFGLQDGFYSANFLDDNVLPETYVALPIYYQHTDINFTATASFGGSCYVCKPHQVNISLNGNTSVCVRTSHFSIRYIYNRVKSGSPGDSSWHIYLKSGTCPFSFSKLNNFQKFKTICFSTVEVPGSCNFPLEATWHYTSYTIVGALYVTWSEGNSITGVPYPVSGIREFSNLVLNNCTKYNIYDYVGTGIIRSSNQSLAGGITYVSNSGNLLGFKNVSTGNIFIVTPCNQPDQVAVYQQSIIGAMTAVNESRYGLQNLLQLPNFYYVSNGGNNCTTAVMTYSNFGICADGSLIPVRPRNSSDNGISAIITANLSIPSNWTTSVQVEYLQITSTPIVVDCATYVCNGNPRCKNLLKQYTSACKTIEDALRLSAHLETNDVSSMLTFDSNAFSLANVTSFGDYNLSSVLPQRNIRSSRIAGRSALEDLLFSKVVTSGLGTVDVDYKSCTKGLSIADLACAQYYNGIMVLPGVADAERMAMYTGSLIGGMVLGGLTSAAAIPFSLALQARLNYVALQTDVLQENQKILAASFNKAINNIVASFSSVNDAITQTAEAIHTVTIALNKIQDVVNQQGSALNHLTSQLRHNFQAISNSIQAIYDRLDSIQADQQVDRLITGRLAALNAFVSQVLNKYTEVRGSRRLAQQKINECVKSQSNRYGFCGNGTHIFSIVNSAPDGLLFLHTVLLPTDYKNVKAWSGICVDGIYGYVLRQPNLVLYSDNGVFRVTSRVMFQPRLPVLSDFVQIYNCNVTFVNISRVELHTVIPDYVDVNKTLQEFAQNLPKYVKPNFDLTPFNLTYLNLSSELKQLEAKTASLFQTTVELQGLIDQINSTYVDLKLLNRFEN
Kind of assay: ELISA on alphacoronavirus spike proteins (Fig 37).

B1: antibody S2P6 (antibody 420 1 1), human monoclonal antibody expressed as recombinant human IgG1 (antibody, V domains shown)
VH: EVQLVQSGAEVKKPGASVKVSCKASGYTFTSQYMHWVRQAPGQGLEWIGIINPSGVHTSYAQKFQGRVTLTRDTSTSTLYMELSSLRSEDTAVYYCARGSPKGAFDYWGQGTLVTVSS
VL: not shown
For the molecule B1, the binding result is recorded as “no binding”.
